For one substance, dH and MIP‐1β secretion (ELISA) by CD8+ T cells transduced with the MEL5 TCR in response to titrated … presented by T2 cells; sensitivity against that of DMF4 TCR-transduced T cells results are on record in PMC6618058.

For assay [1], the target named is Biotinylated HLA-A*02:01 with the MART-1(26-35) decapeptide ….
Assay [2] has as its target HLA-A*02:01 with the MART-1(27-35) nonapeptide …, not tagged.

Turning to MEL5 TCR, the dH in assay [1] was -14 kcal/mol. The substance also had an MIP‐1β secretion (ELISA) by CD8+ T cells transduced with the MEL5 TCR in response to titrated … presented by T2 cells; sensitivity against that of DMF4 TCR-transduced T cells in assay [2] of 100 fold.
